# Experimental data: the supplement of paper PMC9112550, “Optimization of the antimicrobial peptide Bac7 by deep mutational scanning” (BMC Biology, 2022)
# Test system: Escherichia coli TOP10
# Experiment: shrunken log2 fold change of peptide-encoding DNA abundance (4.5 h post-induction vs induction); higher = less antimicrobial activity (less host growth inhibition)
# Conditions: time post-induction: 4.5 h; library: site-saturation at positions 5, 18, 19, 20
# 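Note: peptides expressed intracellularly from a pBAD plasmid library in pooled LB shake-flask culture, induced with 0.3% L-arabinose, DNA abundance read by NGS, three biological replicates, DESeq2 with apeglm shrinkage.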
row,Sequence,shrunken log2 fold change
1,RRIRPRPPRLPRPRPRPLDMPRP,-0.142
2,RRIRFRPPRLPRPRPRPQQKPRP,0.0925
3,RRIRFRPPRLPRPRPRPRNRPRP,-0.182
4,RRIRARPPRLPRPRPRPKHFPRP,4.03
5,RRIRMRPPRLPRPRPRPRQDPRP,0.271
6,RRIRMRPPRLPRPRPRPWGMPRP,0.187
7,RRIRNRPPRLPRPRPRPWACPRP,0.0014
8,RRIRERPPRLPRPRPRPFIWPRP,0.0296
9,RRIRQRPPRLPRPRPRPGCNPRP,-0.0136
10,RRIRGRPPRLPRPRPRPPYLPRP,-0.0342
11,RRIRMRPPRLPRPRPRPAHVPRP,0.176
12,RRIRTRPPRLPRPRPRPPPGPRP,0.668
13,RRIRERPPRLPRPRPRPCAWPRP,-0.0536
14,RRIRKRPPRLPRPRPRPTLRPRP,1.01
15,RRIRYRPPRLPRPRPRPTFEPRP,-0.274
16,RRIRARPPRLPRPRPRPLSWPRP,0.984
17,RRIRWRPPRLPRPRPRPCWTPRP,0.0677
18,RRIRKRPPRLPRPRPRPSECPRP,-0.0384
19,RRIRSRPPRLPRPRPRPFRYPRP,-0.822
20,RRIRHRPPRLPRPRPRPNGKPRP,-0.335
21,RRIRRRPPRLPRPRPRPYRLPRP,-0.0421
22,RRIRLRPPRLPRPRPRPAIYPRP,-1.28
23,RRIRWRPPRLPRPRPRPRTFPRP,0.3
24,RRIRRRPPRLPRPRPRPFNQPRP,-0.0554
25,RRIRMRPPRLPRPRPRPEFSPRP,1.51

row,Sequence,shrunken log2 fold change
1,RRIRCRPPRLPRPRPRPFGMPRP,-0.033
2,RRIRCRPPRLPRPRPRPRDAPRP,0.56
3,RRIRQRPPRLPRPRPRPVNVPRP,0.0398
4,RRIRVRPPRLPRPRPRPVMWPRP,0.365
5,RRIRPRPPRLPRPRPRPYLHPRP,-0.471
6,RRIRMRPPRLPRPRPRPKWHPRP,0.349
7,RRIRWRPPRLPRPRPRPKYDPRP,-0.449
8,RRIRCRPPRLPRPRPRPDNHPRP,-0.719
9,RRIRDRPPRLPRPRPRPVCGPRP,0.979
10,RRIRCRPPRLPRPRPRPMWEPRP,-0.0554
11,RRIRCRPPRLPRPRPRPAAMPRP,0.281
12,RRIRLRPPRLPRPRPRPWPYPRP,-0.127
13,RRIRDRPPRLPRPRPRPQPNPRP,0.072
14,RRIRARPPRLPRPRPRPTGMPRP,0.52
15,RRIRQRPPRLPRPRPRPQPMPRP,0.348
16,RRIRWRPPRLPRPRPRPTHKPRP,0.396
17,RRIRDRPPRLPRPRPRPSVVPRP,-0.0127
18,RRIRVRPPRLPRPRPRPVCFPRP,0.147
19,RRIRTRPPRLPRPRPRPHWDPRP,-0.245
20,RRIRVRPPRLPRPRPRPRTAPRP,0.287
21,RRIRSRPPRLPRPRPRPCEVPRP,-0.333
22,RRIRNRPPRLPRPRPRPDAFPRP,-0.0836
23,RRIRVRPPRLPRPRPRPLWNPRP,-0.197
24,RRIRCRPPRLPRPRPRPGLWPRP,0.569
25,RRIRARPPRLPRPRPRPPQIPRP,0.599

row,Sequence,shrunken log2 fold change
1,RRIRQRPPRLPRPRPRPLQKPRP,-0.0062
2,RRIRQRPPRLPRPRPRPKTHPRP,-0.389
3,RRIRMRPPRLPRPRPRPTFVPRP,0.134
4,RRIRNRPPRLPRPRPRPSRTPRP,0.0867
5,RRIRGRPPRLPRPRPRPDQAPRP,0.925
6,RRIRNRPPRLPRPRPRPEQLPRP,0.389
7,RRIRSRPPRLPRPRPRPREFPRP,0.322
8,RRIRNRPPRLPRPRPRPQVSPRP,-0.434
9,RRIRCRPPRLPRPRPRPSIPPRP,-0.969
10,RRIRYRPPRLPRPRPRPIGCPRP,0.225
11,RRIRDRPPRLPRPRPRPRSPPRP,-0.183
12,RRIRRRPPRLPRPRPRPCVFPRP,0.022
13,RRIRTRPPRLPRPRPRPGPKPRP,0.152
14,RRIRLRPPRLPRPRPRPNGPPRP,-0.146
15,RRIRRRPPRLPRPRPRPMIWPRP,0.0834
16,RRIRNRPPRLPRPRPRPHMCPRP,-0.0575
17,RRIRMRPPRLPRPRPRPKRYPRP,0.407
18,RRIRIRPPRLPRPRPRPQECPRP,-0.0195
19,RRIRPRPPRLPRPRPRPEQGPRP,-0.178
20,RRIRPRPPRLPRPRPRPIYHPRP,-0.466
21,RRIRHRPPRLPRPRPRPQKQPRP,0.219
22,RRIRNRPPRLPRPRPRPNTDPRP,-0.249
23,RRIRSRPPRLPRPRPRPMNRPRP,-0.378
24,RRIRCRPPRLPRPRPRPPYMPRP,-0.288
25,RRIRTRPPRLPRPRPRPHASPRP,-0.033

row,Sequence,shrunken log2 fold change
1,RRIRMRPPRLPRPRPRPKAMPRP,0.705
2,RRIRKRPPRLPRPRPRPHRGPRP,0.0594
3,RRIRGRPPRLPRPRPRPSQPPRP,0.138
4,RRIRMRPPRLPRPRPRPLTKPRP,0.212
5,RRIRARPPRLPRPRPRPVYVPRP,0.111
6,RRIRVRPPRLPRPRPRPDFLPRP,-0.189
7,RRIRMRPPRLPRPRPRPFKSPRP,-0.0472
8,RRIRHRPPRLPRPRPRPWVEPRP,-0.0959
9,RRIRCRPPRLPRPRPRPYYCPRP,-1.03
10,RRIRIRPPRLPRPRPRPHTVPRP,-0.588
11,RRIRCRPPRLPRPRPRPLNVPRP,-0.186
12,RRIRVRPPRLPRPRPRPYAPPRP,-0.0528
13,RRIRWRPPRLPRPRPRPTTFPRP,-0.09
14,RRIRYRPPRLPRPRPRPRRAPRP,0.364
15,RRIRTRPPRLPRPRPRPHKGPRP,0.0731
16,RRIRVRPPRLPRPRPRPLRWPRP,0.63
17,RRIRVRPPRLPRPRPRPPIAPRP,0.322
18,RRIRRRPPRLPRPRPRPAWHPRP,0.527
19,RRIRDRPPRLPRPRPRPGMPPRP,-0.221
20,RRIRSRPPRLPRPRPRPSWAPRP,-0.0813
21,RRIRTRPPRLPRPRPRPANRPRP,-0.0396
22,RRIRNRPPRLPRPRPRPAEHPRP,-0.201
23,RRIRARPPRLPRPRPRPWQMPRP,-0.0506
24,RRIRFRPPRLPRPRPRPKLDPRP,0.0288
25,RRIRFRPPRLPRPRPRPMVIPRP,0.023

row,Sequence,shrunken log2 fold change
1,RRIRLRPPRLPRPRPRPYGRPRP,-0.2
2,RRIRIRPPRLPRPRPRPSEEPRP,-0.188
3,RRIRFRPPRLPRPRPRPAIRPRP,-0.32
4,RRIRDRPPRLPRPRPRPIGHPRP,0.012
5,RRIRHRPPRLPRPRPRPPKGPRP,0.113
6,RRIRYRPPRLPRPRPRPTVDPRP,0.0546
7,RRIRWRPPRLPRPRPRPHANPRP,-0.00914
8,RRIRQRPPRLPRPRPRPKVCPRP,-0.193
9,RRIRLRPPRLPRPRPRPEWMPRP,-0.00172
10,RRIRYRPPRLPRPRPRPIVHPRP,-2.04
11,RRIRSRPPRLPRPRPRPKTLPRP,2.07
12,RRIRHRPPRLPRPRPRPHPHPRP,-0.19
13,RRIRYRPPRLPRPRPRPKGKPRP,-0.215
14,RRIRSRPPRLPRPRPRPFLIPRP,-0.383
15,RRIRDRPPRLPRPRPRPPLMPRP,0.325
16,RRIRWRPPRLPRPRPRPTRVPRP,0.825
17,RRIRLRPPRLPRPRPRPFMYPRP,-1.5
18,RRIRNRPPRLPRPRPRPVPLPRP,-0.539
19,RRIRDRPPRLPRPRPRPGDDPRP,0.636
20,RRIRLRPPRLPRPRPRPKVIPRP,-0.185
21,RRIRQRPPRLPRPRPRPCPPPRP,0.00708
22,RRIRQRPPRLPRPRPRPCEGPRP,-0.000921
23,RRIRYRPPRLPRPRPRPNKQPRP,-0.0515
24,RRIRNRPPRLPRPRPRPRQVPRP,-0.306
25,RRIRKRPPRLPRPRPRPAGPPRP,0.368

row,Sequence,shrunken log2 fold change
1,RRIRPRPPRLPRPRPRPTMVPRP,-0.0466
2,RRIRNRPPRLPRPRPRPILRPRP,-0.455
3,RRIRYRPPRLPRPRPRPEWLPRP,0.00963
4,RRIRNRPPRLPRPRPRPFAAPRP,0.0928
5,RRIRFRPPRLPRPRPRPYAPPRP,-0.496
6,RRIRYRPPRLPRPRPRPVLIPRP,-0.00211
7,RRIRQRPPRLPRPRPRPHMSPRP,-0.28
8,RRIRERPPRLPRPRPRPLLFPRP,-0.121
9,RRIRNRPPRLPRPRPRPEFQPRP,-0.00325
10,RRIRCRPPRLPRPRPRPPSAPRP,0.345
11,RRIRWRPPRLPRPRPRPTGEPRP,0.306
12,RRIRIRPPRLPRPRPRPQAYPRP,0.0364
13,RRIRKRPPRLPRPRPRPFEMPRP,0.911
14,RRIRMRPPRLPRPRPRPILIPRP,0.0587
15,RRIRMRPPRLPRPRPRPGFRPRP,0.525
16,RRIRARPPRLPRPRPRPLQFPRP,0.0375
17,RRIRIRPPRLPRPRPRPDPEPRP,-0.158
18,RRIRGRPPRLPRPRPRPSLQPRP,1.07
19,RRIRHRPPRLPRPRPRPDRQPRP,-0.135
20,RRIRVRPPRLPRPRPRPECIPRP,-0.0283
21,RRIRCRPPRLPRPRPRPKTYPRP,-0.48
22,RRIRFRPPRLPRPRPRPPRRPRP,0.826
23,RRIRKRPPRLPRPRPRPIFCPRP,0.387
24,RRIRQRPPRLPRPRPRPTWAPRP,0.586
25,RRIRWRPPRLPRPRPRPVESPRP,0.0647
